Target: 3×HA-Creb1 (UniProt Q01147-2 1-327)
Test: cell-based or functional assay

Sequence of 3×HA-Creb1 (Q01147 whole entry): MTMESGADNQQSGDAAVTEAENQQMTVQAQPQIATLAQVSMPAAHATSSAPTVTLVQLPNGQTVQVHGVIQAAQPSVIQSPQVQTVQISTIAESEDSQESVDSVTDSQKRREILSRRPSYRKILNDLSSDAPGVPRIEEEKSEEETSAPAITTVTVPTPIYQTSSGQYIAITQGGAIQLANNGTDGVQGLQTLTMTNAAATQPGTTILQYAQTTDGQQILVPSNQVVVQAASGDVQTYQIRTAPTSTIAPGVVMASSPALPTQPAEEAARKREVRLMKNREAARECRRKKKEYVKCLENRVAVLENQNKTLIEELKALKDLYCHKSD

transactivation of Reporter II (4×(Mef2#3–CRE#3–E#4) luciferase) by Mef2c and Creb1 together in HEK293T cells; 2.8-fold by Mef2c and 3.7-fold by Creb1 alone: 8.3 fold
B1: 6×Myc-Mef2c (natural protein)
chain: not shown

— paper PMC8945367, “Transcription Regulation of Tceal7 by the Triple Complex of Mef2c, Creb1 and Myod” (Biology, 2022)
